Read-outs that look alike come from different tables or passages of the source.
Assays:
[1] = Membrane off-binding rate (koff) of FtsA from FRAP
Excerpt: We could also use the data from these bleaching experiments to quantify the membrane-binding kinetics and diffusion of membrane-bound proteins by analysing the change of the fluorescence profile during recovery.
Equimolar concentrations of Cy3- and Cy5-labelled FtsA, supplemented with 20% unlabelled FtsA were used to study FRET and FRAP. Five pre-bleach frames were acquired, followed by acceptor photobleaching of a rectangular ROI with 40% 641 nm laser power and a dwell size of 1 µs/pixel, 75% overlapping lines. The recovery of the signal or the increase in donor intensity were measured with either two frames or one frame per second.
Bleaching the acceptor dye leads to an increase in the donor intensity, which can be used to quantify the Foerster Resonance energy transfer (FRET)[48]. FRET efficiency was quantified with E%=Ipost/Ipost+Ipre⋅100 , where Ipost is the intensity of the […] and Ipre is the […]. […] To extract the contribution of both processes, we adjusted a routine recently published by Gerganova et al.[33]. In short, the code provides the contribution of both modes of recovery by analysing the shape of the fluorescence recovery profile. […] Contribution of diffusion leads to a change of the slope of the outer borders of the bleached region (S4h right). Thus, by measuring the change of the slope of the border recovery, diffusion and simple on/off binding can be distinguished. We developed “FRAPdiff”, a graphical user interface, which uses the original fit routine by David Rutkowski. It can be used directly on.tiff movies with annotated bleach regions as ImageJ ROIs. In addition, we added optional bleach correction, user selectable projection axis (x or y), and optional mirroring of the recovery profiles, if bleaching was not symmetric. The original fit routine for estimating the recovery and diffusion dynamics can be found at https://github.com/davidmrutkowski/1DReflectingDiffusion. FRAPdiff is available at 10.5281/zenodo.6400639[49] under the GPLv3 open-source license.

FtsZ = settings: His-tagged FtsA
Protocol: Co-treadmilling of FtsA with FtsZ relies on the dynamic exchange of FtsA on the membrane. […] To investigate the respective contributions of membrane binding kinetics and FtsA self-interaction on the colocalization dynamics with FtsZ, we wanted to create variants of the two FtsA proteins that are permanently attached to the membrane. […] Accordingly, in these experiments the proteins only differ in their tendency to form oligomers.
To study colocalization of His-tagged variants of FtsA, 0.5–1 µM of Cy5 labelled His-tagged FtsAs were added to the chamber, incubated for 20 min and washed 6x with reaction buffer. […] To control the density of membrane-bound FtsA, SUVs without and with Tris-NTA lipids were mixed to obtain the respective Tris-NTA concentrations. To perform FRET/FRAP experiments, equimolar concentrations of Cy3 and Cy5 labelled His-tagged FtsAs (total 0.5–1 µM) or His-SUMO-Cys were added to a chamber and treated as above. […] FRAP experiments were performed as described before.
Time-lapse videos were first intensity-corrected and contrast-enhanced to avoid bleaching effects and simplify subsequent analysis. To remove contributions of X–Y drift, the videos were processed with the Linear Stack Alignment with SIFT plugin. Proper alignment was checked with the 3TP align plugin (J. A. Parker; Beth Israel Deaconess Medical Center, Boston). Subsequently, regions of interest (ROIs) in the center of the stacks were chosen for colocalization analysis. The Pearson’s correlation coefficient (PCC) was quantified with the Image CorrelationJ 1o plugin. To extract information about the relative ratio of FtsZ/FtsA molecules (slope of linear regression), we also used the Image CorrelationJ 1o plugin. As an output, the plugin provides a scatterplot of FtsZ vs FtsA intensities, to which we fitted a linear slope y=k⋅x+d , where k is the slope and d the offset. The slope was used as an estimate for the ratio of FtsA molecules below FtsZ filaments.

B1: FtsA R286W (protein)
chain: MIKATDRKLVVGLEIGTAKVAALVGEVLPDGMVNIIGVGSCPSRGMDKGGVNDLESVVKCVQRAIDQAELMADCQISSVYLALSGKHISCQNEIGMVPISEEEVTQEDVENVVHTAKSVRVRDEHRVLHVIPQEYAIDYQEGIKNPVGLSGVRMQAKVHLITCHNDMAKNIVKAVERCGLKVDQLIFAGLASSYSVLTEDERELGVCVVDIGGGTMDIAVYTGGALRHTKVIPYAGNVVTSDIAYAFGTPPSDAEAIKVRHGCALGSIVGKDESVEVPSVGGRPPWSLQRQTLAEVIEPRYTELLNLVNEEILQLQEKLRQQGVKHHLAAGIVLTGGAAQIEGLAACAQRVFHTQVRIGAPLNITGLTDYAQEPYYSTAVGLLHYGKESHLNGEAEVEKRVTASVGSWIKRLNSWLRKEF
modifications: Cy3 or Cy5 at the N-terminus in the labelled form (labelled CLEPTGG peptide conjugated to the 5xGly tag by sortagging); unlabelled protein also used; left off: TwinStrep-SUMO, N-terminal, cleaved | 5x
Off binding rate ([1]; 0.4µM FtsA alone, replicate Exp.7): 2.26E-01
Off binding rate ([1]; 0.4µM FtsA alone, replicate Exp.8): 2.05E-01
Off binding rate ([1]; 0.4µM FtsA alone, replicate Exp.9): 2.55E-01
membrane exchange (off-rate) ([1]; 0.4 µM FtsA, p-value 6.73 × 10^−6): 0.37 ± 0.24 s⁻¹
Off binding rate ([1]; 0.4µM, + FtsN&Z, Mean, n=9): 0.1008
Off binding rate ([1]; 0.4µM, + FtsN&Z, replicate Exp.1): 3.83E-02
Off binding rate ([1]; 0.4µM, + FtsN&Z, replicate Exp.2): 7.71E-02
Off binding rate ([1]; 0.4µM, + FtsN&Z, replicate Exp.3): 4.63E-02
Off binding rate ([1]; 0.4µM, + FtsN&Z, replicate Exp.4): 2.42E-01
Off binding rate ([1]; 0.4µM, + FtsN&Z, replicate Exp.5): 1.75E-01
Off binding rate ([1]; 0.4µM, + FtsN&Z, replicate Exp.6): 5.12E-02
Off binding rate ([1]; 0.4µM, + FtsN&Z, replicate Exp.7): 5.06E-02
Off binding rate ([1]; 0.4µM, + FtsN&Z, replicate Exp.8): 1.16E-01
Off binding rate ([1]; 0.4µM, + FtsN&Z, replicate Exp.9): 1.11E-01
Off binding rate ([1]; 0.4µM, + FtsN, Mean, n=6): 0.1799
Off binding rate ([1]; 0.4µM, + FtsN, replicate Exp.1): 1.51E-01
Off binding rate ([1]; 0.4µM, + FtsN, replicate Exp.2): 4.77E-02
Off binding rate ([1]; 0.4µM, + FtsN, replicate Exp.3): 2.92E-01
Off binding rate ([1]; 0.4µM, + FtsN, replicate Exp.4): 2.85E-01
Off binding rate ([1]; 0.4µM, + FtsN, replicate Exp.5): 1.01E-01
Off binding rate ([1]; 0.4µM, + FtsN, replicate Exp.6): 2.02E-01
Off binding rate ([1]; 0.4µM, + FtsZ, Mean, n=8): 0.1794
Off binding rate ([1]; 0.4µM, + FtsZ, replicate Exp.1): 1.34E-01
Off binding rate ([1]; 0.4µM, + FtsZ, replicate Exp.2): 2.29E-01
Off binding rate ([1]; 0.4µM, + FtsZ, replicate Exp.3): 1.49E-01
Off binding rate ([1]; 0.4µM, + FtsZ, replicate Exp.4): 2.39E-01
Off binding rate ([1]; 0.4µM, + FtsZ, replicate Exp.5): 1.49E-01
Off binding rate ([1]; 0.4µM, + FtsZ, replicate Exp.6): 1.15E-01
Off binding rate ([1]; 0.4µM, + FtsZ, replicate Exp.7): 3.30E-01
Off binding rate ([1]; 0.4µM, + FtsZ, replicate Exp.8): 8.97E-02
Off binding rate, mean ([1]; 0.8 µM FtsA + FtsN&Z): 0.0945 s
Off binding rate, mean ([1]; 0.8 µM FtsA + FtsN): 0.188 s
Off binding rate, mean ([1]; 0.8 µM FtsA + FtsZ): 0.161 s
Off binding rate ([1]; 0.8µM FtsA alone, Mean, n=8): 0.3865
Off binding rate, mean ([1]; 0.8 µM FtsA alone): 0.386 s
Off binding rate ([1]; 0.8µM FtsA alone, replicate Exp.1): 6.04E-01
Off binding rate ([1]; 0.8µM FtsA alone, replicate Exp.2): 6.73E-01
Off binding rate ([1]; 0.8µM FtsA alone, replicate Exp.3): 7.27E-01
Off binding rate ([1]; 0.8µM FtsA alone, replicate Exp.4): 1.48E-01
Off binding rate ([1]; 0.8µM FtsA alone, replicate Exp.5): 5.66E-01
Off binding rate ([1]; 0.8µM FtsA alone, replicate Exp.6): 9.49E-02
Off binding rate ([1]; 0.8µM FtsA alone, replicate Exp.7): 1.46E-01
Off binding rate ([1]; 0.8µM FtsA alone, replicate Exp.8): 1.33E-01
Off binding rate ([1]; 0.8µM, + FtsN&Z, Mean, n=4): 0.0945
Off binding rate ([1]; 0.8µM, + FtsN&Z, replicate Exp.1): 3.85E-02
Off binding rate ([1]; 0.8µM, + FtsN&Z, replicate Exp.2): 2.22E-01
Off binding rate ([1]; 0.8µM, + FtsN&Z, replicate Exp.3): 6.03E-02
Off binding rate ([1]; 0.8µM, + FtsN&Z, replicate Exp.4): 5.77E-02
Off binding rate ([1]; 0.8µM, + FtsN, Mean, n=3): 0.1881
Off binding rate ([1]; 0.8µM, + FtsN, replicate Exp.1): 7.35E-02
Off binding rate ([1]; 0.8µM, + FtsN, replicate Exp.2): 3.72E-01
Off binding rate ([1]; 0.8µM, + FtsN, replicate Exp.3): 1.19E-01
Off binding rate ([1]; 0.8µM, + FtsZ, Mean, n=8): 0.1609
Off binding rate ([1]; 0.8µM, + FtsZ, replicate Exp.1): 2.88E-01
Off binding rate ([1]; 0.8µM, + FtsZ, replicate Exp.2): 1.14E-01
Off binding rate ([1]; 0.8µM, + FtsZ, replicate Exp.3): 2.71E-01
Off binding rate ([1]; 0.8µM, + FtsZ, replicate Exp.4): 1.12E-01
Off binding rate ([1]; 0.8µM, + FtsZ, replicate Exp.5): 1.44E-01
Off binding rate ([1]; 0.8µM, + FtsZ, replicate Exp.6): 1.39E-01
Off binding rate ([1]; 0.8µM, + FtsZ, replicate Exp.7): 1.37E-01
Off binding rate ([1]; 0.8µM, + FtsZ, replicate Exp.8): 8.23E-02
Off binding rate ([1]; Fig. S3i/S3j, 0.10 µM FtsA, summary value): 0.326 s⁻¹
Off binding rate ([1]; Fig. S3i/S3j, 0.20 µM FtsA, summary value): 0.251 s⁻¹
Off binding rate ([1]; Fig. S3i/S3j, 0.40 µM FtsA, summary value): 0.374 s⁻¹
Off binding rate ([1]; Fig. S3i/S3j, 0.80 µM FtsA, summary value): 0.386 s⁻¹
membrane off-rate ([1]; in the presence of FtsZ): around 0.20 s^−1
PCC (FtsZ; 0.60% Tris NTA, Exp. 2 (statistical analysis)): 0.65
PCC, Mean (FtsZ; 0.60% Tris NTA, n = 2 (WT), 3 (R286W), sd 0.07, 0.08, p-value 0.39): 0.56
PCC (FtsZ; 0.80% Tris NTA, Exp. 1 (statistical analysis)): 0.79
PCC (FtsZ; 0.80% Tris NTA, Exp. 2 (statistical analysis)): 0.63
PCC (FtsZ; 0.80% Tris NTA, Exp. 3 (statistical analysis)): 0.69
PCC, Mean (FtsZ; 0.80% Tris NTA, n = 3, 3, sd 0.0141 (WT), 0.0648 (R286W), p-value 0.61): 0.70
PCC (FtsZ; 1.00% Tris NTA, Exp. 1 (statistical analysis)): 0.78
PCC (FtsZ; 1.00% Tris NTA, Exp. 2 (statistical analysis)): 0.71
PCC (FtsZ; 1.00% Tris NTA, Exp. 3 (statistical analysis)): 0.72
PCC, Mean (FtsZ; 1.00% Tris NTA, n = 4 (WT), 3 (R286W), sd 0.08, 0.0316, p-value 6.25E-02): 0.73
PCC (FtsZ; 2.00% Tris NTA, Exp. 1 (statistical analysis)): 0.63
PCC (FtsZ; 2.00% Tris NTA, Exp. 2 (statistical analysis)): 0.53
PCC (FtsZ; 2.00% Tris NTA, Exp. 3 (statistical analysis)): 0.55
PCC, Mean (FtsZ; 2.00% Tris NTA, n = 3, 3, sd 0.0143 (WT), 0.04 (R286W), p-value 1.59E-04): 0.57
PCC (FtsZ; […] Tris NTA, Exp. 1 (statistical analysis)): 0.60
PCC (FtsZ; […] Tris NTA, Exp. 2 (statistical analysis)): 0.62
PCC (FtsZ; […] Tris NTA, Exp. 3 (statistical analysis)): 0.65
PCC, Mean (FtsZ; […] Tris NTA, n = 3, 3, sd 0.06 (WT), 0.02 (R286W), p-value 3.86E-04): 0.63

Source: paper PMC9098913, “In vitro reconstitution of Escherichia coli divisome activation” (Nature Communications, 2022)
